# Experimental data from patent publication CN114989309A.
# T1: 抗原表位融合多肽AFBMG
# T1 sequence: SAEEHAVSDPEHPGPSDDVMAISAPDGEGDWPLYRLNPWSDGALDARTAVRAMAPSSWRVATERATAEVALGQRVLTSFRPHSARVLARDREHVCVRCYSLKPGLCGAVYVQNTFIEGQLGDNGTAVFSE
# B1: 黄曲霉毒素纳米抗体Nano-AF (VHH)
# VHH: QLQLGGSGGGLVQPGGLVQACAASGSTFAGFRAMGWRQAFRQAREFVAAITWSGASTYYTDSVKGRFTISRDNAKNTVYLQMNNLESLKPEDTAVYYCAGFMYYASNYCRYWGQGTQVTVSS
# Biological target: T1, 抗原表位融合多肽AFBMG
# Assay: colloidal gold test strip with gold-labelled Nano-AF; dilution series of AFBMG from 1 mg/mL, three repeats
binder,measurement,value
B1,最低检测限,10 ng/mL
